In patent US20220064329A1 (Novo Nordisk, published 2022):
Where a chain is given by its changes, count along the chain named. Numbers in names are those of the source.

T1: recombinant human activated Factor VII (FVIIa) (human, UniProt P08709 61-212; P08709 213-466, ten glutamate residues of the Gla domain may be gamma-carboxylated)
T1 construct: chains tethered by a disulfide bond; also called Factor VIIa; rFVIIa
T1 sequence 1: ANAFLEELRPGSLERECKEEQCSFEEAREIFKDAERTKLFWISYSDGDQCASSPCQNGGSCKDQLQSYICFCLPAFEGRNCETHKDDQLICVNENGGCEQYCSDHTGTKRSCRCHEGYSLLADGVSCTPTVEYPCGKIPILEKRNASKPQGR
T1 sequence 2: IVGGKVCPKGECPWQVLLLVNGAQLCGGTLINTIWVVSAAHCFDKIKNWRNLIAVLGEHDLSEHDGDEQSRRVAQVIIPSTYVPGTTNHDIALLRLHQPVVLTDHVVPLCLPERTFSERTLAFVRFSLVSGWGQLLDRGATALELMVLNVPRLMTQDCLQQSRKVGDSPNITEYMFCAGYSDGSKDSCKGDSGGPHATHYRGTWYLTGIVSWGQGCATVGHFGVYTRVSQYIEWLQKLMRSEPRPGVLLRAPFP

B1: VH SEQ ID NO 626 / VL SEQ ID NO 470 (antibody, IgG4, V domains shown)
VH: QVQLQESGPGLVKPSQTLSLTCTVSGYSISSDSAWSWIRQPPGKGLEWIGYIQYSGSTNYNPSLKSRVTISRDTSKNQFSLKLSSVTAADTAVYYCARSVNYYGNSFAVGPWGQGTLVTVSS
VL: EIVLTQSPATLSLSPGERATLSCRASQGVSDYLHWYQQKPGQAPRLLIKYASQPATGIPARFSGSGSGTDFTLTISSLEPEDFAVYYCQNGHSFPLTFGQGTKLEIK
notes: humanized 11F2; IgG4 S228P/kappa
B2: VH SEQ ID NO 314 / VL SEQ ID NO 494 (antibody, IgG4, V domains shown)
VH: B1 VH with K13E, Q16D, T23A, I70M, R72V, A89L
VL: B1 VL with F83V
notes: as for B1
B3: VH SEQ ID NO 314 / VL SEQ ID NO 478 (antibody, IgG4, V domains shown)
VH: B1 VH with K13E, Q16D, T23A, I70M, R72V, A89L
VL: B1 VL with N90Q
notes: as for B1
B4: VH SEQ ID NO 314 / VL SEQ ID NO 334 (antibody, IgG4, V domains shown)
VH: B1 VH with K13E, Q16D, T23A, I70M, R72V, A89L
VL: B1 VL with V29I
notes: as for B1
B5: VH SEQ ID NO 314 / VL SEQ ID NO 454 (antibody, IgG4, V domains shown)
VH: B1 VH with K13E, Q16D, T23A, I70M, R72V, A89L
VL: B1 VL with Q42E
notes: as for B1
B6: VH SEQ ID NO 514 / VL SEQ ID NO 502 (antibody, IgG4, V domains shown)
VH: B1 VH with K13E, Q16D, T23A, S30T, G45K, I70M, A89L, P111Y
VL: B1 VL with A51T
notes: as for B1
B7: VH SEQ ID NO 314 / VL SEQ ID NO 358 (antibody, IgG4, V domains shown)
VH: B1 VH with K13E, Q16D, T23A, I70M, R72V, A89L
VL: B1 VL with V29I, A51T
notes: as for B1
B8: VH SEQ ID NO 314 / VL SEQ ID NO 462 (antibody, IgG4, V domains shown)
VH: B1 VH with K13E, Q16D, T23A, I70M, R72V, A89L
VL: B1 VL with Q100A
notes: as for B1
B9: VH SEQ ID NO 514 / VL SEQ ID NO 366 (antibody, IgG4, V domains shown)
VH: B1 VH with K13E, Q16D, T23A, S30T, G45K, I70M, A89L, P111Y
VL: B1 VL with V29L, H34A, Q42E
notes: as for B1
B10: VH SEQ ID NO 514 / VL SEQ ID NO 462 (antibody, IgG4, V domains shown)
VH: B1 VH with K13E, Q16D, T23A, S30T, G45K, I70M, A89L, P111Y
VL: B1 VL with Q100A
notes: as for B1
B11: VH SEQ ID NO 514 / VL SEQ ID NO 358 (antibody, IgG4, V domains shown)
VH: B1 VH with K13E, Q16D, T23A, S30T, G45K, I70M, A89L, P111Y
VL: B1 VL with V29I, A51T
notes: as for B1
B12: VH SEQ ID NO 514 / VL SEQ ID NO 438 (antibody, IgG4, V domains shown)
VH: B1 VH with K13E, Q16D, T23A, S30T, G45K, I70M, A89L, P111Y
VL: B1 VL with H34A, F83V
notes: as for B1
B13: VH SEQ ID NO 514 / VL SEQ ID NO 318 (antibody, IgG4, V domains shown)
VH: B1 VH with K13E, Q16D, T23A, S30T, G45K, I70M, A89L, P111Y
VL: B1 VL with V29I, Q42E, A51T
notes: as for B1
B14: VH SEQ ID NO 314 / VL SEQ ID NO 342 (antibody, IgG4, V domains shown)
VH: B1 VH with K13E, Q16D, T23A, I70M, R72V, A89L
VL: B1 VL with V29I, A51T, T69R, Q100A, I106L
notes: as for B1
B15: VH SEQ ID NO 514 / VL SEQ ID NO 414 (antibody, IgG4, V domains shown)
VH: B1 VH with K13E, Q16D, T23A, S30T, G45K, I70M, A89L, P111Y
VL: B1 VL with H34A
notes: as for B1
B16: VH SEQ ID NO 314 / VL SEQ ID NO 382 (antibody, IgG4, V domains shown)
VH: B1 VH with K13E, Q16D, T23A, I70M, R72V, A89L
VL: B1 VL with V29L, Q42E
notes: as for B1
B17: VH SEQ ID NO 514 / VL SEQ ID NO 398 (antibody, IgG4, V domains shown)
VH: B1 VH with K13E, Q16D, T23A, S30T, G45K, I70M, A89L, P111Y
VL: B1 VL with H34A, Q42E, A51T
notes: as for B1
B18: VH SEQ ID NO 514 / VL SEQ ID NO 390 (antibody, IgG4, V domains shown)
VH: B1 VH with K13E, Q16D, T23A, S30T, G45K, I70M, A89L, P111Y
VL: B1 VL with H34A, Q42E
notes: as for B1
B19: VH SEQ ID NO 314 / VL SEQ ID NO 470 (antibody, IgG4, V domains shown)
VH: B1 VH with K13E, Q16D, T23A, I70M, R72V, A89L
VL: B1 VL
notes: as for B1
B20: VH SEQ ID NO 514 / VL SEQ ID NO 478 (antibody, IgG4, V domains shown)
VH: B1 VH with K13E, Q16D, T23A, S30T, G45K, I70M, A89L, P111Y
VL: B1 VL with N90Q
notes: as for B1
B21: VH SEQ ID NO 522 / VL SEQ ID NO 326 (antibody, IgG4, V domains shown)
VH: B1 VH with K13E
VL: B1 VL with V29I, Q42E, A51T, A84G, Q100A, I106L
notes: as for B1
B22: VH SEQ ID NO 514 / VL SEQ ID NO 486 (antibody, IgG4, V domains shown)
VH: B1 VH with K13E, Q16D, T23A, S30T, G45K, I70M, A89L, P111Y
VL: B1 VL with A84G
notes: as for B1
B23: VH SEQ ID NO 514 / VL SEQ ID NO 422 (antibody, IgG4, V domains shown)
VH: B1 VH with K13E, Q16D, T23A, S30T, G45K, I70M, A89L, P111Y
VL: B1 VL with H34A, N90Q
notes: as for B1
B24: VH SEQ ID NO 522 / VL SEQ ID NO 318 (antibody, IgG4, V domains shown)
VH: B1 VH with K13E
VL: B1 VL with V29I, Q42E, A51T
notes: as for B1
B25: VH SEQ ID NO 314 / VL SEQ ID NO 486 (antibody, IgG4, V domains shown)
VH: B1 VH with K13E, Q16D, T23A, I70M, R72V, A89L
VL: B1 VL with A84G
notes: as for B1
B26: VH SEQ ID NO 514 / VL SEQ ID NO 406 (antibody, IgG4, V domains shown)
VH: B1 VH with K13E, Q16D, T23A, S30T, G45K, I70M, A89L, P111Y
VL: B1 VL with H34A, Q100A
notes: as for B1
B27: VH SEQ ID NO 514 / VL SEQ ID NO 470 (antibody, IgG4, V domains shown)
VH: B1 VH with K13E, Q16D, T23A, S30T, G45K, I70M, A89L, P111Y
VL: B1 VL
notes: as for B1
B28: VH SEQ ID NO 514 / VL SEQ ID NO 494 (antibody, IgG4, V domains shown)
VH: B1 VH with K13E, Q16D, T23A, S30T, G45K, I70M, A89L, P111Y
VL: B1 VL with F83V
notes: as for B1
B29: VH SEQ ID NO 314 / VL SEQ ID NO 350 (antibody, IgG4, V domains shown)
VH: B1 VH with K13E, Q16D, T23A, I70M, R72V, A89L
VL: B1 VL with V29I, A51T, Q100A, I106L
notes: as for B1
B30: VH SEQ ID NO 514 / VL SEQ ID NO 350 (antibody, IgG4, V domains shown)
VH: B1 VH with K13E, Q16D, T23A, S30T, G45K, I70M, A89L, P111Y
VL: B1 VL with V29I, A51T, Q100A, I106L
notes: as for B1
B31: VH SEQ ID NO 522 / VL SEQ ID NO 310 (antibody, IgG4, V domains shown)
VH: B1 VH with K13E
VL: B1 VL with V29I, H34A
notes: as for B1
B32: VH SEQ ID NO 514 / VL SEQ ID NO 310 (antibody, IgG4, V domains shown)
VH: B1 VH with K13E, Q16D, T23A, S30T, G45K, I70M, A89L, P111Y
VL: B1 VL with V29I, H34A
notes: as for B1
B33: VH SEQ ID NO 514 / VL SEQ ID NO 334 (antibody, IgG4, V domains shown)
VH: B1 VH with K13E, Q16D, T23A, S30T, G45K, I70M, A89L, P111Y
VL: B1 VL with V29I
notes: as for B1
B34: VH SEQ ID NO 514 / VL SEQ ID NO 382 (antibody, IgG4, V domains shown)
VH: B1 VH with K13E, Q16D, T23A, S30T, G45K, I70M, A89L, P111Y
VL: B1 VL with V29L, Q42E
notes: as for B1
B35: VH SEQ ID NO 514 / VL SEQ ID NO 454 (antibody, IgG4, V domains shown)
VH: B1 VH with K13E, Q16D, T23A, S30T, G45K, I70M, A89L, P111Y
VL: B1 VL with Q42E
notes: as for B1
B36: VH SEQ ID NO 514 / VL SEQ ID NO 446 (antibody, IgG4, V domains shown)
VH: B1 VH with K13E, Q16D, T23A, S30T, G45K, I70M, A89L, P111Y
VL: B1 VL with H34A, A51T
notes: as for B1
B37: VH SEQ ID NO 314 / VL SEQ ID NO 502 (antibody, IgG4, V domains shown)
VH: B1 VH with K13E, Q16D, T23A, I70M, R72V, A89L
VL: B1 VL with A51T
notes: as for B1
B38: VH SEQ ID NO 314 / VL SEQ ID NO 318 (antibody, IgG4, V domains shown)
VH: B1 VH with K13E, Q16D, T23A, I70M, R72V, A89L
VL: B1 VL with V29I, Q42E, A51T
notes: as for B1
B39: VH SEQ ID NO 514 / VL SEQ ID NO 430 (antibody, IgG4, V domains shown)
VH: B1 VH with K13E, Q16D, T23A, S30T, G45K, I70M, A89L, P111Y
VL: B1 VL with H34A, A84G
notes: as for B1
B40: VH SEQ ID NO 314 / VL SEQ ID NO 326 (antibody, IgG4, V domains shown)
VH: B1 VH with K13E, Q16D, T23A, I70M, R72V, A89L
VL: B1 VL with V29I, Q42E, A51T, A84G, Q100A, I106L
notes: as for B1

Molecular target: T1, recombinant human activated Factor VII …
Experiment: BLI (Fortebio)
Protocol: All steps were performed in running buffer (20 mM HEPES buffer (pH 7.4), 150 mM NaCl, 5 mM CaCl2, 0.03% Tween 20, 1 mg/ml IgG-free BSA) at […] Antibodies were captured on anti-human tips (AHC, Fortebio) for 3 min at a concentration of 10 ug/ml. This was followed by a 3 min incubation to establish a baseline. Following this, association was monitored for 3 min using four different concentrations of VIIa (25 nm, 50 nM, 100 nM, and 200 nM), followed by a 3 mi dissociation. Sensorgrams were analysed using Fortebio data analysis software.

Binder	Kd [nM]
B1	1.1
B2	28
B3	64
B4	21
B5	32
B6	0.92
B7	18
B8	26
B9	1.4
B10	1.2
B11	0.87
B12	5.4
B13	0.99
B14	28
B15	4.6
B16	27
B17	7.9
B18	4.7
B19	20
B20	1.9

Binder	Kd [nM]
B21	0.81
B22	0.95
B23	68
B24	0.97
B25	22
B26	5.3
B27	1.2
B28	1.4
B29	19
B30	0.94
B31	8.3
B32	3.1
B33	1.1
B34	1.2
B35	1.3
B36	7.7
B37	25
B38	17
B39	7.1
B40	15
